From a protein production outcome set (Wang et al. 2014)

Test: label from the status in PepcDB records

Sequence | protein production
MNFIRIVKFDFKNIIRNPMLLFFNTIFPLILIGSIGFVMKNGYGSFNVTSYDYYGVTMMIFTAFIICITASNTFMEKSVKKGNTRIVYAPVSKAEIYLSKIISTYILGSIFYSIIIVLGKYVLNINYGTRSTIYIIILINMLTLFGCCLGVLFCCIFKSEEGANSVLQIVIMLFIFFGGVFFPVYSLGKIVESISNLSPLKWITECIFRIIYDNDFSIYLPTIGVMLVSSIICIVICQIIFKPEEYV | failed
MNFKESRAIYLQIADRICDDILLGQYEEEGRIPSVREYASIVEVNANTVMRSYEYLQSQEVIYNKRGIGFFVASGAKMLIHSLRKEQFLKEEVGSFFRQLYTLGISIKEIEKMYYEFIQRQNQ | not failed
MNFLNENEKKITLIPPPEFVQYVGGHFEEVGKEFMQYFIEIGNLKSNETVLDVGCGIGRMAVPLMNYLSDDGTYYGFDLFNKGITWCKNNISTRRNNFHFEHVDIYNQFYNPDGKEDASQYKFPYEDESFDFIFLTSVFTHLLPKELEHYVREIARVLKKDGRCFITFFLINPESSYYLNAGLSPLGFYHQIDNCYVLNKDIPNFAVAYPEEDIRTLLNKYGLEMQTPPHYGSWCGRTEHTSYQDIILAQKISER | failed
MNFWEVVLIVVNFSLLSWILLIGRETKKWSKLATLIAVVMVTVQLLAEGFRWQMIPAYVSPVILILCYLLAGRKKGFRSSGIFIVKTSLLCIYLSVAVALPLLMPVFSFEEPTGPHRVGTKLYHWVDHQRNEPYSKNPNDRRELMVQIWYPAAEKSKGDPEPYIRNINELSKGLEKTLSIPAFAFSHMELVKSHSFMDLQLSDSENHYPILLFSHGFNGFRNQNTFQVEELASQGYIVLSIDHTFDAAATVFPGGRTAYVQPINLTDEGDSHIKLWEEDVSFVLNQIEKLNENDETGFFTGRLDTSRIGMFGHSYGGATAAQILAKDSRVKAAINMDGTLYGEILPESGIGKPFLLMNAEEPDEADPFEVRERYGRGLAGGGMSMVIPHTDHTSFTDLHLFSPLLQSPGENPKEVHRIINEFSLAFFDQYVKQKDDGSTLKRLITQYPEVNFKINR | failed
MNGIHDVGGMDGFGKVMYVKEEEDIYFTHDWERLALGLVAGCMAQGLGMKAFDEFRIGIELMRPVDYLTSSYYGHWIATVAYNLVDTGVLDEKELDERTEVFSKKPDTKIPRREDPALVKLVEKALNDGLSPLREISASPRFKVGERIKTKNIHPTGHTRFPRYARDKYGVIDEVYGAHVFPDDAAHRKGENPQYLYRVRFEAEELWGYKQKDSVYIDLWESYMEPVSH | not failed
MNGVLEQHWTGEGRRLRAAPAVLCLLLGTALAGCGDMNRFQTAAAPPTVAMPKPKPAVAQTPATEKEHERILASYGGTYDDPRLESLVTKTVDRLVAASDRPDQGYRITILNSGAVNAFALPNGQLYVTRGLLALASDTSELSSVLSHEMAHVLSKHAAMREDQARQAAIVTRVVTDMSNDPDLTALALAKTKLTMASFSRNQEFEADGIGVGISARAHFDPYGAARFLSAMERNAELKAGKTSLDPRAQDFTSSHPATPERVQNAQTIARQYVAPEGGERDRESYLAAIDNLVYGEDPERGFCPRPAFPASEARLHLPGAGQFHARQHRAGGDRRARRRLAGDALRRGAGAGRAVARRLPQFGLDGRRREGVHGRHHHQRLPGRVRHRQGRPVAVQGLCAAFRQRRLPLHLRGTAEVDRERAQCARDRQLVPSPDPRRDPGRPPAAHQGDHRAARRHRGIALPPHGRRRSPRRALPRAQRPRSQRAGEGEGSREGRGGLTLREARVIPGRLARTRDLEPRRHCRRVGKA | failed
MNHKQYLALAVPLIISTITTPLLGAVDTAVAGQLSSPAYIGGVAVGTMIFNTMYWLLGFLRVSTSGFAAQSLGSQNRSESVLALARPVFIALFAGLMFIILQKPLEYAALTLIQPDRHTAEFASQYFSLRIWGAPFALISYCILGWLMGMSLIKVTLLLQISMNVLNIVLDIVFVYVFHMEVYGIALATLISDVTGCLIGCWLVKTNAAMPFKLPSVKLLFDPKPFKKMMVVNRDLLIRTLCLLTVFNLFTAKGAGFGAEILAANAILIQIHYLMAYVFDGFANASSIFAGKAVGRMDRDLYSRTLSLSIQWSLISAALLSVGYFLLRNAILPLFTPLESVLEAAKTYDVWIALFPLAASFGLVFYGIFTGATEIGPVRNSMFLAVLVFLAAFFTAVPAFGNHGLWLAFLLFSLGRSVFLCMAVPGLTTRLFGERSAAREAGQRPKSLKHPG | failed
MNHLKKLVSILICTLLIVSLLPFSVWADSQERDGTDVEEITTKEKVTQETTSNETTSEPLKGTTVNKAINAKSFPTGNYSGDFSINSQKDVIESGQTVNYNIYLKITGPNTRYQNAKLVINLPKNGEFNQSLNELKIAGATPSYNKTTRQLVYTYQTLNSGVVDKVILKMTTKNGYTPNGTKLVVTGELSADNLSEKVTEQAETTVNATATTALSNDFTKVENSINNNPSQGDIGIWSFNLNIPKKSTGSLFMEEGKKIVIEYTLADKLDYLGVAGDTPEPTKVEGQKLTWEIAAPTYLEQEKANSLLNKTFQIRTFFQPTIPNFATVENKAVATTNFVTLTDSIVDTSKASVSVSASDPATIPPTIGSVYAPAHRGPVDANWGIATVTGNPDIKVYDTAKLGFSLMLNSAMNDSPWYDFLYYDAYYNIDDNLNLDYFRSGDFYFKPNVNYPGWAQLKKSPKYNLLVKYDGDTDWTTLKEDVELSKMYSRKDLGIPDDKHVSKVWLHFTYAPAGMYAADLSFFTTVKEGYVGEVRNSTQINMYGADSQDYIHYYDDTNPWPEAWKNYAGDRTAQIIPQPTGKNKFVQGSVVFDDTDGNLINIGDNSISVNLESNKASISRLKGPFEAMVLLPSGVKMKNTEQNGFKVTVLNENYQNAGRQLLKVKWDKKTLLPAEKLTAKINVSVAKDTPSNMTVEMFGFLQDTDFNVPEVSGTPTISDTKMEIDSNDINQNGNSEESRITSGNHYILNTSNHLKISKKAKGNRDKEYSGLANATTNSIVSYQLSLENDSDEKIANMVLMDVLPSENDLGITDNSERGSKFNLALTKAVEVPKEWKDKVEVTYSTAKNPKRAGILDKHTIYPIGTEPLVDNTEATQADWLTASEVKDWSNIYSFKIELKEGIEWIPGKSMKIQFDLKTPKKNQIDKTLLKQQTKKEDRAAWNSFAVAVNNSQVIEPAQVGVALDDSVAPVTVQYVDQNHKQIASPETLTGAYGEKFTAKQKKINNYSLVKIPANVSGTFNEKAQTITFIYQKVTAGRIIVNYVDKNGEKIADSIVLNGKLNSSYTTSSKKISGYKLYQTPKNATGKFLNTSQTVTYVYERTSNLSISSSNKGTENVKKLAKLPHTGDSTTTNLWVIIGLFMLSGAFVIMKKR | failed
MNHVAVIGGGIIGASWAVVFARRGLEVTIVERDAACLAGLPARLAGMIERSASLLGAGEQPGDVAARIGATDALAAAVGRADYVQEAVSENLALKRTLFAELDALAPAHALLASSTSTYGASQFTEALAGRARCLVAHPMTPPHLSPVVEMAASAWTDPQVLAGAEAFMRSLGQHPVRIRKEIPGFVLNRLQGALLMEMFRVIADDVISPADADALISQGLGLRWATLGPLEGVDLNAPGGIADYLQRYGHIFNDMAVGQGLPAPVDAELISALDGAMRAALPLERLEAKRGWRDRAIAGVRVALHDYTGEKPLEHHHHHH | failed
MNIEEAKELVDNSKFYGKTSSVIKAEVRDIIDQLNQPKPEVPQCVADWIEECKEEDLTLKGLFSNSDMPAKIFDWIFGSDENCRLMAEAWINGYTVEKEKLYTVDLPNGQPLVRGINTLYFSQNLATENVKLTESEIRKDFEWAWQFAEEVTE | failed
MNIEQMLAILDPDVVQRLKIAVEIGKWPNGVALTAEQRQICMQAVMIWEHKHLPEEERTGYIDRGTKEEGEECDSHEPEIKPIRFI | failed
MNIPNLLTLFRFFLIPCFIFAFFSRSNDSLINSAIIFFIAGFTDILDGYIARKFNEITKYGTVMDPLADKLMLLTVLCCLTIKGYIPLLILLIMLAKEFSMIIIGVFLYGKNIIIPANIWGKLSTLIFYVAILFFTFSKFLGTYLLYIAILGAVVAYINYFLIFLSKYRQNATK | failed
MNIQQLEYIAALDKFRHFAKAADYCNVSQPTLSTMILKLEEELGAKLFDRSRQPIEPTSIGALVVSQAKQILYDLNSITRIIEEEQ | failed
MNIQSELEFKFAHYLINNAVEASFCLGDNWQFLYVNDATCRMTEYSREQLLSMNLQDIDVDFALHDWEEIRQKNNYTFKTRYRSQSGRIFLVEMSLTFLEDQERRFSCVFVREKS | not failed
MNIRIAEELDVPALAELYQTTVLAVAPQHYSPEQTQMWASFASDTDNFQKFILNATTFIATDERGILGFAGITEDGHVTATYVRSDLIRQGIGSILMEKILEYAHLHKIRRLYAEASEFSLGLFQKFGFHIYDTEIVNRQGVLFRRYIVERS | failed
